# Patent US20170130226, “APTAMERS AGAINST EGFR AND THERAPEUTIC USES THEREOF” (ALTERMUNE LIMITED, published 2017)
# Target: EGFR (UniProt P00533 P00533:25-645)
# Experiment: SPR; PBS, 5 mM MgCl2, 20 C
# Details: tags: R&D Systems; amine-coupled to sensor chip; label: 5' biotin
# Procedure: Aptamer binding to EGFR recombinant protein was assessed by surface plasmon resonance (SPR). SPR experiments were performed on a 404pi system (BiOptix, Boulder, Colo.), at a constant temperature of 20° C., 20 μL min⁻¹ flow rate, using running buffer (degassed PBS, 5 mM MgCl₂, 0.05% Tween) for all coupling and capture steps. 0.1 M N-hydroxysuccinimide (NHS) in MOPS, 0.4 M 1-ethyl-3-(3-dimethylaminopropyl) carbodiimide hydrochloride (EDC), 1 M ethanolamine hydrochloride (pH 8.5) and 10 mM sodium acetate pH 4.5, were from Sigma (St. Louis, Mo.). EGFR was obtained from R&D Systems (Minneapolis, Minn.). Three 96 well plates of oligonucleotides were synthesized by solid phase phosphoramidite chemistry by Boston Open Labs (Cambridge, Mass.) with a 5′ biotin.
# The surface in all four channels of a CDM150 sensor chip (BiOptix) was activated by injecting 140 μL of a 1:1 mixture (v/v) of EDC and NHS. Then 350 μL of 285 nM EGFR in 10 mM sodium acetate pH 4.5 was injected in all 4 channels and covalently bound to a density of ˜8000 Response Units (RU) over 1050 sec. Finally, the surface was blocked by an injection of 200 μL 1 M ethanolamine hydrochloride.
row,Binder,binding result
1,"GGACGGAUUUAAUCGCCGUAGAAAAGCAUGUCAAAGCCGGAACCGUCC (ssRNA, 2'-F all C and U; 2'-OMe A7) [ALT102064.01]",binds
2,"GGACGGAUUUAAUCGCCGUAGAAAAGCAUGUCAAAGCCGGAACCGUCC (ssRNA, 2'-F all C and U except 2'-OMe C4) [ALT102061.01]",binds
3,"GGACGGAUUUAAUCGCCGUAGAAAAGCAUGUCAAAGCCGGAACCGUCC (ssRNA, 2'-F all C and U; 2'-OMe G15) [ALT102072.01]",binds
4,"GGACGGAUUUAAUCGCCGUAGAAAAGCAUGUCAAAGCCGGAACCGUCC (ssRNA, 2'-F all C and U; 2'-OMe G18) [ALT102075.01]",binds
5,"GGACGGAUUUAAUCGCCGUAGAAAAGCAUGUCAAAGCCGGAACCGUCC (ssRNA, 2'-F all C and U; 2'-OMe G1) [ALT102058.01]",binds
6,"GGACGGAUUUAAUCGCCGUAGAAAAGCAUGUCAAAGCCGGAACCGUCC (ssRNA, 2'-F all C and U and A33) [ALT102125.01]",binds
7,"GGACGGAUUUAAUCGCCGUAGAAAAGCAUGUCAAAGCCGGAACCGUCC (ssRNA, 2'-F all C and U; 2'-OMe G40) [ALT102097.01]",binds
8,"GGACGGAUUUAAUCGCCGUAGAAAAGCAUGUCAAAGCCGGAACCGUCC (ssRNA, 2'-F all C and U; 2'-OMe G30) [ALT102087.01]",binds
9,"GGACGGAUUUAAUCGCCGUAGAAAAGCAUGUCAAAGCCGGAACCGUCC (ssRNA, 2'-F all C and U; 2'-OMe A23) [ALT102080.01]",binds
10,"GGACGGAUUUAAUCGCCGUAGAAAAGCAUGUCAAAGCCGGAACCGUCC (ssRNA, 2'-F all C and U and A25) [ALT102121.01]",binds
11,"GGACGGAUUUAAUCGCCGUAGAAAAGCAUGUCAAAGCCGGAACCGUCC (ssRNA, 2'-F all C and U; 2'-OMe A33) [ALT102090.01]",binds
12,"GGACGGAUUUAAUCGCCGUAGAAAAGCAUGUCAAAGCCGGAACCGUCC (ssRNA, 2'-F all C and U and A20) [ALT102116.01]",binds
13,"GGACGGAUUUAAUCGCCGUAGAAAAGCAUGUCAAAGCCGGAACCGUCC (ssRNA, 2'-F all C and U and G15) [ALT102114.01]",binds
14,"GGACGGAUUUAAUCGCCGUAGAAAAGCAUGUCAAAGCCGGAACCGUCC (ssRNA, 2'-F all C and U except 2'-OMe C47) [ALT102104.01]",binds
15,"GGACGGAUUUAAUCGCCGUAGAAAAGCAUGUCAAAGCCGGAACCGUCC (ssRNA, 2'-F all C and U; 2'-OMe G39) [ALT102096.01]",binds
16,"GGACGGAUUUAAUCGCCGUAGAAAAGCAUGUCAAAGCCGGAACCGUCC (ssRNA, 2'-F all C and U except 2'-OMe C48) [ALT102105.01]",binds
17,"GGACGGAUUUAAUCGCCGUAGAAAAGCAUGUCAAAGCCGGAACCGUCC (ssRNA, 2'-F all C and U except 2'-OMe U8) [ALT102065.01]",binds
18,"GGACGGAUUUAAUCGCCGUAGAAAAGCAUGUCAAAGCCGGAACCGUCC (ssRNA, 2'-F all C and U except 2'-OMe C38) [ALT102095.01]",binds
19,"GGACGGAUUUAAUCGCCGUAGAAAAGCAUGUCAAAGCCGGAACCGUCC (ssRNA, 2'-F all C and U and A24) [ALT102120.01]",binds
20,"GGACGGAUUUAAUCGCCGUAGAAAAGCAUGUCAAAGCCGGAACCGUCC (ssRNA, 2'-F all C and U; 2'-OMe G6) [ALT102063.01]",binds
21,"GGACGGAUUUAAUCGCCGUAGAAAAGCAUGUCAAAGCCGGAACCGUCC (ssRNA, 2'-F all C and U; 2'-OMe G36) [ALT102093.01]",binds
22,"GGACGGAUUUAAUCGCCGUAGAAAAGCAUGUCAAAGCCGGAACCGUCC (ssRNA, 2'-F all C and U; 2'-OMe A28) [ALT102085.01]",binds
23,"GGACGGAUUUAAUCGCCGUAGAAAAGCAUGUCAAAGCCGGAACCGUCC (ssRNA, 2'-F all C and U except 2'-OMe U46) [ALT102103.01]",binds
24,"GGACGGAUUUAAUCGCCGUAGAAAAGCAUGUCAAAGCCGGAACCGUCC (ssRNA, 2'-F all C and U; 2'-OMe A20) [ALT102077.01]",binds

row,Binder,binding result
1,"GGACGGAUUUAAUCGCCGUAGAAAAGCAUGUCAAAGCCGGAACCGUCC (ssRNA, 2'-F all C and U and A23) [ALT102119.01]",binds
2,"GGACGGAUUUAAUCGCCGUAGAAAAGCAUGUCAAAGCCGGAACCGUCC (ssRNA, 2'-F all C and U except 2'-OMe U9) [ALT102066.01]",binds
3,"GGACGGAUUUAAUCGCCGUAGAAAAGCAUGUCAAAGCCGGAACCGUCC (ssRNA, 2'-F all C and U except 2'-OMe C16) [ALT102073.01]",binds
4,"GGACGGAUUUAAUCGCCGUAGAAAAGCAUGUCAAAGCCGGAACCGUCC (ssRNA, 2'-F all C and U; 2'-OMe A3) [ALT102060.01]",binds
5,"GGACGGAUUUAAUCGCCGUAGAAAAGCAUGUCAAAGCCGGAACCGUCC (ssRNA, 2'-F all C and U and G5) [ALT102109.01]",binds
6,"GGACGGAUUUAAUCGCCGUAGAAAAGCAUGUCAAAGCCGGAACCGUCC (ssRNA, 2'-F all C and U and G26) [ALT102122.01]",binds
7,"GGACGGAUUUAAUCGCCGUAGAAAAGCAUGUCAAAGCCGGAACCGUCC (ssRNA, 2'-F all C and U; 2'-OMe G21) [ALT102078.01]",binds
8,"GGACGGAUUUAAUCGCCGUAGAAAAGCAUGUCAAAGCCGGAACCGUCC (ssRNA, 2'-F all C and U and A28) [ALT102123.01]",binds
9,"GGACGGAUUUAAUCGCCGUAGAAAAGCAUGUCAAAGCCGGAACCGUCC (ssRNA, 2'-F all C and U and A7) [ALT102111.01]",binds
10,"GGACGGAUUUAAUCGCCGUAGAAAAGCAUGUCAAAGCCGGAACCGUCC (ssRNA, 2'-F all C and U and A3) [ALT102108.01]",binds
11,"GGACGGAUUUAAUCGCCGUAGAAAAGCAUGUCAAAGCCGGAACCGUCC (ssRNA, 2'-F all C and U and G2) [ALT102107.01]",binds
12,"GGACGGAUUUAAUCGCCGUAGAAAAGCAUGUCAAAGCCGGAACCGUCC (ssRNA, 2'-F all C and U except 2'-OMe C27) [ALT102084.01]",binds
13,"GGACGGAUUUAAUCGCCGUAGAAAAGCAUGUCAAAGCCGGAACCGUCC (ssRNA, 2'-F all C and U; 2'-OMe A41) [ALT102098.01]",binds
14,"GGACGGAUUUAAUCGCCGUAGAAAAGCAUGUCAAAGCCGGAACCGUCC (ssRNA, 2'-F all C and U except 2'-OMe C37) [ALT102094.01]",binds
15,"GGACGGAUUUAAUCGCCGUAGAAAAGCAUGUCAAAGCCGGAACCGUCC (ssRNA, 2'-F all C and U and A11) [ALT102112.01]",binds
16,"GGACGGAUUUAAUCGCCGUAGAAAAGCAUGUCAAAGCCGGAACCGUCC (ssRNA, 2'-F all C and U; 2'-OMe G45) [ALT102102.01]",binds
17,"GGACGGAUUUAAUCGCCGUAGAAAAGCAUGUCAAAGCCGGAACCGUCC (ssRNA, 2'-F all C and U and A22) [ALT102118.01]",binds
18,"GGACGGAUUUAAUCGCCGUAGAAAAGCAUGUCAAAGCCGGAACCGUCC (ssRNA, 2'-F all C and U; 2'-OMe G2) [ALT102059.01]",binds
19,"GGACGGAUUUAAUCGCCGUAGAAAAGCAUGUCAAAGCCGGAACCGUCC (ssRNA, 2'-F all C and U; 2'-OMe G5) [ALT102062.01]",binds
20,"GGACGGAUUUAAUCGCCGUAGAAAAGCAUGUCAAAGCCGGAACCGUCC (ssRNA, 2'-F all C and U except 2'-OMe U19) [ALT102076.01]",binds
21,"GGACGGAUUUAAUCGCCGUAGAAAAGCAUGUCAAAGCCGGAACCGUCC (ssRNA, 2'-F all C and U; 2'-OMe A24) [ALT102081.01]",binds
22,"GGACGGAUUUAAUCGCCGUAGAAAAGCAUGUCAAAGCCGGAACCGUCC (ssRNA, 2'-F all C and U; 2'-OMe G26) [ALT102083.01]",binds
23,"GGACGGAUUUAAUCGCCGUAGAAAAGCAUGUCAAAGCCGGAACCGUCC (ssRNA, 2'-F all C and U and G21) [ALT102117.01]",binds
24,"GGACGGAUUUAAUCGCCGUAGAAAAGCAUGUCAAAGCCGGAACCGUCC (ssRNA, 2'-F all C and U and G6) [ALT102110.01]",binds
